# Source: patent US20200024330A1
# Assays:
# Assay in all cases: cell-based or functional assay
# [1] = biological target: HIV-1 Env of isolate 93IN905 (HIV-1)
# [2] = biological target: HIV-1 Env of isolate 93MW959 (HIV-1)
# [3] = biological target: HIV-1 Env of isolate 97ZA012 (HIV-1)
# [4] = biological target: HIV-1 Env of isolate 98IN022 (HIV-1)
# [5] = biological target: HIV-1 Env of isolate JRCSF (HIV-1) (UniProt P20871)
# [6] = biological target: HIV-1 Env of isolate MGRM-Chronic-B-010 (HIV-1)
# [7] = biological target: HIV-1 Env of isolate MGRM-Chronic-B-011 (HIV-1)
# [8] = biological target: HIV-1 Env of isolate MGRM-Chronic-B-012 (HIV-1)
# [9] = biological target: HIV-1 Env of isolate MGRM-Chronic-B-017 (HIV-1)
# [10] = biological target: HIV-1 Env of isolate MGRM-Chronic-B-018 (HIV-1)
# [11] = biological target: HIV-1 Env of isolate MGRM-Chronic-B-020 (HIV-1)
# [12] = biological target: HIV-1 Env of isolate MGRM-Chronic-B-023 (HIV-1)
# [13] = biological target: HIV-1 Env of isolate MGRM-Chronic-B-024 (HIV-1)
# [14] = biological target: HIV-1 Env of isolate MGRM-D-011 (HIV-1)
# [15] = biological target: HIV-1 Env of isolate MGRM-D-012 (HIV-1)
# [16] = biological target: HIV-1 Env of isolate MGRM-D-013 (HIV-1)
# [17] = biological target: HIV-1 Env of isolate MGRM-D-014 (HIV-1)
# [18] = biological target: HIV-1 Env of isolate MGRM-D-016 (HIV-1)
# [19] = biological target: HIV-1 Env of isolate MGRM-D-018 (HIV-1)
# [20] = biological target: HIV-1 Env of isolate MGRM-D-019 (HIV-1)
# [21] = biological target: HIV-1 Env of isolate MGRM-D-020 (HIV-1)
# [22] = biological target: HIV-1 Env of isolate MGRM-D-021 (HIV-1)
# [23] = biological target: HIV-1 Env of isolate MGRM-D-022 (HIV-1)
# [24] = biological target: HIV-1 Env of isolate MGRM-D-024 (HIV-1)
# [25] = biological target: HIV-1 Env of isolate MGRM-D-026 (HIV-1)
# [26] = biological target: HIV-1 Env of isolate MGRM-D-028 (HIV-1)
# [27] = biological target: HIV-1 Env of isolate MGRM-D-029 (HIV-1)
# [28] = biological target: HIV-1 Env of isolate MGRM-F1-004 (HIV-1)
# [29] = biological target: HIV-1 Env of isolate MGRM-F1-006 (HIV-1)
# [30] = biological target: HIV-1 Env of isolate MGRM-F1-008 (HIV-1)
# [31] = biological target: HIV-1 Env of isolate MGRM-F1-010 (HIV-1)
# [32] = biological target: HIV-1 Env of isolate MGRM-F1-012 (HIV-1)
# [33] = biological target: HIV-1 Env of isolate MGRM-F1-013 (HIV-1)
# [34] = biological target: HIV-1 Env of isolate MGRM-F1-014 (HIV-1)
# [35] = biological target: HIV-1 Env of isolate MGRM-F1-015 (HIV-1)
# [36] = biological target: HIV-1 Env of isolate MGRM-F1-016 (HIV-1)
# [37] = biological target: HIV-1 Env of isolate MGRM-F1-017 (HIV-1)
# [38] = biological target: HIV-1 Env of isolate MGRM-F1-018 (HIV-1)
# [39] = biological target: HIV-1 Env of isolate MGRM-F1-020 (HIV-1)
# [40] = biological target: HIV-1 Env of isolate MGRM-F1-021 (HIV-1)
# [41] = biological target: HIV-1 Env of isolate MGRM-F1-022 (HIV-1)
# [42] = biological target: HIV-1 Env of isolate MGRM-F1-023 (HIV-1)
# [43] = biological target: HIV-1 Env of isolate NL43 (HIV-1)
# [44] = biological target: HIV-1 Env of isolate PVO.4 (HIV-1)
# [45] = biological target: HIV-1 Env of isolate QH0692.42 (HIV-1)
# [46] = biological target: HIV-1 Env of isolate SC422661.8 (HIV-1)
# [47] = biological target: HIV-1 Env of isolate SF162 (HIV-1) (UniProt P19550)
# [48] = biological target: HIV-1 Env of isolate THR0.18 (HIV-1)
# [49] = biological target: HIV-1 Env of isolate TRJ04551.58 (HIV-1)
# [50] = biological target: HIV-1 Env of isolate TRO.11 (HIV-1)
# [51] = biological target: HIV-1 Env of isolate VLGCB3 (HIV-1)
# PGT-144 (antibody), sequence (VH): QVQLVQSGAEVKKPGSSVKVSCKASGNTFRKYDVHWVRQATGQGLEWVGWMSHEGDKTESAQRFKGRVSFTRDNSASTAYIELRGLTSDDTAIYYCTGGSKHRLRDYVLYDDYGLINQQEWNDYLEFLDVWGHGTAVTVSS
# PGT-144 (antibody), sequence (VL): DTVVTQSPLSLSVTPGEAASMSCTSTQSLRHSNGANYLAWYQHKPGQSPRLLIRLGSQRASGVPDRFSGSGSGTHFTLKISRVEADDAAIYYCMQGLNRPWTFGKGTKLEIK
# PGT-143 (antibody), sequence (VH): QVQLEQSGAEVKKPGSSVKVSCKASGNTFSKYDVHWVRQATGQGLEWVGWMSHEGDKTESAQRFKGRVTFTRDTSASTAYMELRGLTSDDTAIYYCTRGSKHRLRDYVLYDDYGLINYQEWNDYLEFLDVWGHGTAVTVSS
# PGT-143 (antibody), sequence (VL): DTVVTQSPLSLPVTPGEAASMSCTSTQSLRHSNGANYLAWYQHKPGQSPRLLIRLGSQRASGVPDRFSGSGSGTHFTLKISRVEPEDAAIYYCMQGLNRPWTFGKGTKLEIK
substance,measurement,setting,value
PGT-143 (antibody),neutralization IC50,[1],0.002 µg/mL
same,neutralization IC50,[2],0.002 µg/mL
same,neutralization IC50,[3],> 50 µg/mL
same,neutralization IC50,[4],0.001 µg/mL
same,neutralization IC50,[5],0.007 µg/mL
same,neutralization IC50,[6],> 50 µg/mL
same,neutralization IC50,[7],1.56 µg/mL
same,neutralization IC50,[8],> 50 µg/mL
same,neutralization IC50,[9],0.145 µg/mL
same,neutralization IC50,[10],0.377 µg/mL
same,neutralization IC50,[11],> 50 µg/mL
same,neutralization IC50,[12],0.236 µg/mL
same,neutralization IC50,[13],0.01 µg/mL
same,"IC50, pseudovirus neutralization",[14],> 50 µg/mL
same,"IC50, pseudovirus neutralization",[15],> 50 µg/mL
same,"IC50, pseudovirus neutralization",[16],0.386 µg/mL
same,"IC50, pseudovirus neutralization",[17],0.009 µg/mL
same,"IC50, pseudovirus neutralization",[18],> 50 µg/mL
same,"IC50, pseudovirus neutralization",[19],> 50 µg/mL
same,"IC50, pseudovirus neutralization",[20],0.277 µg/mL
same,"IC50, pseudovirus neutralization",[21],> 50 µg/mL
same,"IC50, pseudovirus neutralization",[22],> 50 µg/mL
same,"IC50, pseudovirus neutralization",[23],> 50 µg/mL
same,"IC50, pseudovirus neutralization",[24],> 50 µg/mL
same,"IC50, pseudovirus neutralization",[25],44.6 µg/mL
same,"IC50, pseudovirus neutralization",[26],> 50 µg/mL
same,"IC50, pseudovirus neutralization",[27],0.2 µg/mL
same,"IC50, pseudovirus neutralization",[28],0.036 µg/mL
same,"IC50, pseudovirus neutralization",[29],12.3 µg/mL
same,"IC50, pseudovirus neutralization",[30],0.189 µg/mL
same,"IC50, pseudovirus neutralization",[31],> 50 µg/mL
same,"IC50, pseudovirus neutralization",[32],> 50 µg/mL
same,"IC50, pseudovirus neutralization",[33],0.013 µg/mL
same,"IC50, pseudovirus neutralization",[34],0.001 µg/mL
same,"IC50, pseudovirus neutralization",[35],> 50 µg/mL
same,"IC50, pseudovirus neutralization",[36],> 50 µg/mL
same,"IC50, pseudovirus neutralization",[37],26.3 µg/mL
same,"IC50, pseudovirus neutralization",[38],0.701 µg/mL
same,"IC50, pseudovirus neutralization",[39],0.98 µg/mL
same,"IC50, pseudovirus neutralization",[40],> 50 µg/mL
same,"IC50, pseudovirus neutralization",[41],0.082 µg/mL
same,"IC50, pseudovirus neutralization",[42],0.972 µg/mL
same,neutralization IC50,[43],> 50 µg/mL
same,neutralization IC50,[44],0.162 µg/mL
same,neutralization IC50,[45],> 50 µg/mL
same,neutralization IC50,[46],2.02 µg/mL
same,neutralization IC50,[47],> 50 µg/mL
same,neutralization IC50,[48],0.016 µg/mL
same,neutralization IC50,[49],> 50 µg/mL
same,neutralization IC50,[50],0.219 µg/mL
same,neutralization IC50,[51],> 50 µg/mL
PGT-144 (antibody),neutralization IC50,[1],0.132 µg/mL
same,neutralization IC50,[2],0.332 µg/mL
same,neutralization IC50,[3],> 50 µg/mL
same,neutralization IC50,[4],0.171 µg/mL
same,neutralization IC50,[5],0.149 µg/mL
same,neutralization IC50,[6],> 50 µg/mL
same,neutralization IC50,[7],5.64 µg/mL
same,neutralization IC50,[8],> 50 µg/mL
same,neutralization IC50,[9],0.712 µg/mL
same,neutralization IC50,[10],2.4 µg/mL
same,neutralization IC50,[11],> 50 µg/mL
same,neutralization IC50,[12],> 50 µg/mL
same,neutralization IC50,[13],0.04 µg/mL
same,"IC50, pseudovirus neutralization",[14],> 50 µg/mL
same,"IC50, pseudovirus neutralization",[15],> 50 µg/mL
same,"IC50, pseudovirus neutralization",[16],> 50 µg/mL
same,"IC50, pseudovirus neutralization",[17],0.113 µg/mL
same,"IC50, pseudovirus neutralization",[18],> 50 µg/mL
same,"IC50, pseudovirus neutralization",[19],> 50 µg/mL
same,"IC50, pseudovirus neutralization",[20],> 50 µg/mL
same,"IC50, pseudovirus neutralization",[21],> 50 µg/mL
same,"IC50, pseudovirus neutralization",[22],> 50 µg/mL
same,"IC50, pseudovirus neutralization",[23],> 50 µg/mL
same,"IC50, pseudovirus neutralization",[24],> 50 µg/mL
same,"IC50, pseudovirus neutralization",[25],> 50 µg/mL
same,"IC50, pseudovirus neutralization",[26],> 50 µg/mL
same,"IC50, pseudovirus neutralization",[27],0.459 µg/mL
same,"IC50, pseudovirus neutralization",[28],0.105 µg/mL
same,"IC50, pseudovirus neutralization",[29],20.6 µg/mL
same,"IC50, pseudovirus neutralization",[30],0.507 µg/mL
same,"IC50, pseudovirus neutralization",[31],> 50 µg/mL
same,"IC50, pseudovirus neutralization",[32],> 50 µg/mL
same,"IC50, pseudovirus neutralization",[33],0.509 µg/mL
same,"IC50, pseudovirus neutralization",[34],0.014 µg/mL
same,"IC50, pseudovirus neutralization",[35],> 50 µg/mL
same,"IC50, pseudovirus neutralization",[36],> 50 µg/mL
same,"IC50, pseudovirus neutralization",[37],> 50 µg/mL
same,"IC50, pseudovirus neutralization",[38],> 50 µg/mL
same,"IC50, pseudovirus neutralization",[39],8.93 µg/mL
same,"IC50, pseudovirus neutralization",[40],> 50 µg/mL
same,"IC50, pseudovirus neutralization",[41],0.382 µg/mL
same,"IC50, pseudovirus neutralization",[42],1.16 µg/mL
same,neutralization IC50,[43],> 50 µg/mL
same,neutralization IC50,[44],0.535 µg/mL
same,neutralization IC50,[45],> 50 µg/mL
same,neutralization IC50,[46],> 50 µg/mL
same,neutralization IC50,[47],> 50 µg/mL
same,neutralization IC50,[48],0.029 µg/mL
same,neutralization IC50,[49],> 50 µg/mL
same,neutralization IC50,[50],4.73 µg/mL
same,neutralization IC50,[51],> 50 µg/mL
